Results from patent US20240247080A1, “GLP1/GIP/NPY2 RECEPTOR TRIPLE AGONISTS” (Boehringer Ingelheim International GmbH, priority 2022, published 2024).
Starred links: 1 amine or outer side, 2 acyl side, 3 side chain; linkers in the order of their positions; H or OH if unused. Non-standard residues stand in square brackets, D forms with d. Groups on a side chain read outwards from the residue. No end group written: not given here. *: point of attachment. C20 diacid = O=C(O)CCCCCCCCCCCCCCCCCCC(=O)*; C18 diacid = O=C(O)CCCCCCCCCCCCCCCCC(=O)*; γGlu = O=C(O)[C@H](CCC(=O)[*:2])N[*:1]; εLys = N[C@@H](CCCCN[*:1])C(=O)[*:2]; AEEA = NCCOCCOCC(=O)O; Aib = CC(C)(N)C(=O)O; OEG = OEG spacer

T1: human GIP receptor (human, UniProt P48546 22-466)
T1 sequence (looked up): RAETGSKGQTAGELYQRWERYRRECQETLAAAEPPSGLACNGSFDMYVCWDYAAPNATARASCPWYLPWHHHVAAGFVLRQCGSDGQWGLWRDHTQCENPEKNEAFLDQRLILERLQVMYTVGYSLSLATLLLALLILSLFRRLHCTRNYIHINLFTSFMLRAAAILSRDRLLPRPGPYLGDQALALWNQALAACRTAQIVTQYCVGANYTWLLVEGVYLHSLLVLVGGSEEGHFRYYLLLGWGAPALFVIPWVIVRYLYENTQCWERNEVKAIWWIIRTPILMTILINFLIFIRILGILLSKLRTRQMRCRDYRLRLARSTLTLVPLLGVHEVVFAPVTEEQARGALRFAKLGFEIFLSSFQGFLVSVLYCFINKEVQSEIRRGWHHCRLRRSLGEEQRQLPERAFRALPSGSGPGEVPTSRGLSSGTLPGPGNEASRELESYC

T2: human neuropeptide Y2 receptor (human, UniProt P49146 1-381)
T2 sequence (looked up): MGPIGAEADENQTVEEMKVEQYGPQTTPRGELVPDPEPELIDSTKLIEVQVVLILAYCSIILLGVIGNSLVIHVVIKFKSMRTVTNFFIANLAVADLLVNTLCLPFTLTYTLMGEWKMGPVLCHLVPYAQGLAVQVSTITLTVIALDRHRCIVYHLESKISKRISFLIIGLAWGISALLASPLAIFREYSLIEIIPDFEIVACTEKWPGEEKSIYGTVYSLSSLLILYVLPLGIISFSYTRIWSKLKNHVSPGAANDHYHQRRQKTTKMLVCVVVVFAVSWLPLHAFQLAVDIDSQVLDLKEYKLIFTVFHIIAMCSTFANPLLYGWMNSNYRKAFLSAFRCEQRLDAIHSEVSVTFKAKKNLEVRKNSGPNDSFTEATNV

B1: Compound 266 (peptide)
peptide: Y[Aib]EGTFTSDYSI[Aib]LEKQAQ[Aib]AFVQWLIK([OEG-OEG-γGlu-γGlu-γGlu-C18 diacid])GGPSEGASLRHYYNWLTRQRY-NH2
modifications: also: TFA salt
B2: Compound 269 (peptide)
peptide: Y[Aib]EGTFTSDYSI[Aib]LEKQAQ[Aib]AFVQWLIK([AEEA-AEEA-γGlu-γGlu-γGlu-γGlu-C20 diacid])GGPSEGASLRHYYNWLTRQRY-NH2
modifications: also: TFA salt
B3: Compound 273 (peptide)
peptide: Y[Aib]EGTFTSDYSI[Aib]LEKQAQ[Aib]EFVEWLIK([AEEA-AEEA-γGlu-γGlu-γGlu-C20 diacid])GGPSEGASLRHYYNWLTRQRY-NH2
modifications: also: TFA salt
B4: Compound 270 (peptide)
peptide: Y[Aib]EGTFTSDYSI[Aib]LEKQAQ[Aib]AFVQWLIK([AEEA-AEEA-γGlu-γGlu-γGlu-γGlu-C18 diacid])GGPSEGASLRHYYNWLTRQRY-NH2
modifications: also: TFA salt
B5: Compound 265 (peptide)
peptide: YXEGTFTSDYSIXLEKQAQXAFVQWLIKGGPSEGASLRHYYNWLTRQRY
modifications: Aib at 2, 13, 20; K28 side chain acylated with C18DA-gGlu-gGlu-gGlu-gGlu-gGlu-gGlu-eLys; C-terminal amide (NH2)
B6: Compound 271 (peptide)
peptide: Y[Aib]EGTFTSDYSI[Aib]LEKQAQ[Aib]EFVEWLIK([γGlu-γGlu-γGlu-γGlu-C20 diacid])GGPSEGASLRHYYNWLTRQRY-NH2
modifications: also: TFA salt
B7: Compound 268 (peptide)
peptide: Y[Aib]EGTFTSDYSI[Aib]LEKQAQ[Aib]AFVQWLIK([γGlu-γGlu-γGlu-γGlu-C18 diacid])GGPSEGASLRHYYNWLTRQRY-NH2
modifications: also: TFA salt
B8: Compound 263 (peptide)
peptide: Y[Aib]EGTFTSDYSI[Aib]LEKQAQ[Aib]AFVEWLIK([εLys-γGlu-γGlu-γGlu-γGlu-γGlu-C18 diacid])GGPSEPASLRHYYNWLTRQRY-NH2
modifications: also: TFA salt
B9: Compound 267 (peptide)
peptide: Y[Aib]EGTFTSDYSI[Aib]LEKQAQ[Aib]AFVQWLIK([εLys-γGlu-γGlu-γGlu-γGlu-γGlu-C18 diacid])GGPSEGASLRHYYNWLTRQRY-NH2
modifications: also: TFA salt
B10: Compound 262 (peptide)
peptide: Y[Aib]EGTFTSDYSI[Aib]LEKQAE[Aib]AFVEWLIK([γGlu-γGlu-γGlu-γGlu-C18 diacid])GGPSEGASLRHYYNWLTRQRY-NH2
modifications: also: TFA salt
B11: Compound 264 (peptide)
peptide: Y[Aib]EGTFTSDYSI[Aib]LEKQAQ[Aib]AFVQWLIK([Glu-Glu-Glu-Glu-Glu-Glu-C18 diacid])GGPSEGASLRHYYNWLTRQRY-NH2
modifications: also: TFA salt
B12: Compound 272 (peptide)
peptide: Y[Aib]EGTFTSDYSI[Aib]LEKQAQ[Aib]AFVEWLIK([γGlu-γGlu-γGlu-γGlu-C18 diacid])GGPEEGASLRHYYNWLTRQRY-NH2
modifications: also: TFA salt
B13: Compound 274 (peptide)
peptide: Y[Aib]EGTFTSDYSI[Aib]LEKQAQ[Aib]EFVEWLIK([AEEA-γGlu-γGlu-γGlu-C18 diacid])GGPSEGASLRHYYNWLTRQRY-NH2
modifications: also: TFA salt

Columns and labels:
Assay in all cases: cell-based or functional assay
human GLP-1 receptor = human GLP-1 receptor (human, UniProt P43220 24-463)
human GIP receptor = biological target: T1, human GIP receptor
[1] = biological target: T2, human neuropeptide Y2 receptor

| Binder | EC50 hGLP1R 0.5% hP (CreLuc) (human GLP-1 receptor) [nM] | EC50 hGLP1R 100% hP (CreLuc) (human GLP-1 receptor) [nM] | EC50 hGIPR 0.5% hP (CreLuc) (human GIP receptor) [nM] | EC50 hGIPR 100% hP (CreLuc) (human GIP receptor) [nM] | EC50 hNPY2R 0.5% hP (CreLuc) [1] [nM] | EC50 hNPY2R 100% hP (CreLuc) [1] [nM] |
| --- | --- | --- | --- | --- | --- | --- |
| B1 | 0.1 | 2.21 | 0.13 | 0.65 | 7.2 | 22.9 |
| B2 | 0.14 | 3.86 | 0.46 | 1.23 | 9.56 | 32.5 |
| B3 | 0.75 | 19.2 | 0.38 | 1.52 | 19.3 | 76.3 |
| B4 | 0.07 | 1.69 | 0.12 | 0.71 | 9.52 | 21.1 |
| B5 | 0.1 | 2.13 | 0.39 | 0.79 | 8.83 | 23 |
| B6 | 0.53 | 21.4 | 0.62 | 2.62 | 16.1 | 80 |
| B7 | 0.08 | 1.55 | 0.17 | 1.01 | 9.86 | 47.3 |
| B8 | 0.32 | 5.21 | 0.12 | 1.5 | 15.8 | 83.2 |
| B9 | 0.07 | 1.44 | 0.12 | 1.18 | 9.25 | 27.6 |
| B10 | 0.13 | 4.28 | 0.08 | 0.53 | 13.2 | 58.2 |
| B11 | 0.11 | 3.95 | 0.28 | 1.82 | 16.8 | 81.2 |
| B12 | 0.31 | 15.6 | 0.24 | 3.01 | 23.8 | 113 |
| B13 | 0.41 | 17.6 | 0.23 | 1.78 | 18.1 | 74.6 |
